According to article PMC5884726 (Structure (London, England : 1993), 2018):

Molecular target: (UreABC)3 urease apoprotein (Klebsiella aerogenes, UniProt P18316 1-100; P18315 1-106; P18314 1-567)
Assay: native MS

(UreABC)3 urease apoprotein, sequence (P18316 whole entry, chain 1 of 3): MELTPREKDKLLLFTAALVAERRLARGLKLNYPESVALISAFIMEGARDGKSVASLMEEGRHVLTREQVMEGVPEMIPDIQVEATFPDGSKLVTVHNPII
(UreABC)3 urease apoprotein, sequence (P18315 whole entry, chain 2 of 3): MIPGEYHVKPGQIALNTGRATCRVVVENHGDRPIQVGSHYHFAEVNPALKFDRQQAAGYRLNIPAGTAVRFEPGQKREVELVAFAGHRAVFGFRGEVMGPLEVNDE
(UreABC)3 urease apoprotein, sequence (P18314 whole entry, chain 3 of 3): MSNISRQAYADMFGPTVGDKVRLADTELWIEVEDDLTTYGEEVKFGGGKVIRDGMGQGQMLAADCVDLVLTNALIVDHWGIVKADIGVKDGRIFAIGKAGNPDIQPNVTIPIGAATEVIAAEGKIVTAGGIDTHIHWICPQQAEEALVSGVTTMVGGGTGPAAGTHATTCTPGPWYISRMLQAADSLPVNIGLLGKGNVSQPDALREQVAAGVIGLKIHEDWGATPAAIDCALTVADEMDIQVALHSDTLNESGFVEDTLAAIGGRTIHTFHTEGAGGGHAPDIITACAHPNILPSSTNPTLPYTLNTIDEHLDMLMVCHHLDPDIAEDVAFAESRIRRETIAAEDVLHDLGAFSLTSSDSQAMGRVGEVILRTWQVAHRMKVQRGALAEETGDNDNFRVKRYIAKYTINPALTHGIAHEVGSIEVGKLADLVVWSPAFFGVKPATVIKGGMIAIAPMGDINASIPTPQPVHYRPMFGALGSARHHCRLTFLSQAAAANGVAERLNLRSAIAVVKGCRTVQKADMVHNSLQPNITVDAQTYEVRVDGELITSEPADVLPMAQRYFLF

B1: maltose binding protein-UreD fusion protein (MBP-UreD) (natural protein, Klebsiella aerogenes, UniProt Q09063 1-270, looked up)
chain: MLPPLKKGWQATLDLRFHQAGGKTVLASAQHVGPLTVQRPFYPEEETCHLYLLHPPGGIVGGDELTISAHLAPGCHTLITMPGASKFYRSSGAQALVRQQLTLAPQATLEWLPQDAIFFPGANARLFTTFHLCASSRLLAWDLLCLGRPVIGETFSHGTLSNRLEVWVDNEPLLVERLHLQEGELSSIAERPWVGTLLCYPATDALLDGVRDALAPLGLYAGASLTDRLLTVRFLSDDNLICQRVMRDVWQFLRPHLTGKSPVLPRIWLT
binding result: binds
